From patent publication US8673850B2, “PCSK9 inhibitors and methods of use thereof” (Institut de Recherches Cliniques de Montreal, priority 2008, dated 2014)

B1: ΔR1: AnxA2 deletion of aa 37-108 (protein)
chain: MSTVHEILCKLSLEGDHSTPPSAYGSVKAYTNFDAEYDASELKASMKGLGTDEDSLIEIICSRTNQELQEINRVYKEMYKTDLEKDIISDTSGDFRKLMVALAKGRRAEDGSVIDYELIDQDARDLYDAGVKRKGTDVPKWISIMTERSVPHLQKVFDRYKSYSPYDMLESIRKEVKGDLENAFLNLVQCIQNKPLYFADRLYDSMKGKGTRDKVLIRIMVSRSEVDMLKIRSEFKRKYGKSLYYYIQQDTKGDYQKALLYLCGGDDYPYDVPDYA
B2: ΔR2: AnxA2 deletion of aa 109-192 (protein)
chain: MSTVHEILCKLSLEGDHSTPPSAYGSVKAYTNFDAERDALNIETAIKTKGVDEVTIVNILTNRSNAQRQDIAFAYQRRTKKELASALKSALSGHLETVILGLLKTPAQQDARDLYDAGVKRKGTDVPKWISIMTERSVPHLQKVFDRYKSYSPYDMLESIRKEVKGDLENAFLNLVQCIQNKPLYFADRLYDSMKGKGTRDKVLIRIMVSRSEVDMLKIRSEFKRKYGKSLYYYIQQDTKGDYQKALLYLCGGDDYPYDVPDYA
B3: ΔR3: AnxA2 deletion of aa 193-268 (protein)
chain: MSTVHEILCKLSLEGDHSTPPSAYGSVKAYTNFDAERDALNIETAIKTKGVDEVTIVNILTNRSNAQRQDIAFAYQRRTKKELASALKSALSGHLETVILGLLKTPAQYDASELKASMKGLGTDEDSLIEIICSRTNQELQEINRVYKEMYKTDLEKDIISDTSGDFRKLMVALAKGRRAEDGSVIDYELIDYFADRLYDSMKGKGTRDKVLIRIMVSRSEVDMLKIRSEFKRKYGKSLYYYIQQDTKGDYQKALLYLCGGDDYPYDVPDYA
B4: ΔR4: AnxA2 deletion of aa 269-339 (protein)
chain: MSTVHEILCKLSLEGDHSTPPSAYGSVKAYTNFDAERDALNIETAIKTKGVDEVTIVNILTNRSNAQRQDIAFAYQRRTKKELASALKSALSGHLETVILGLLKTPAQYDASELKASMKGLGTDEDSLIEIICSRTNQELQEINRVYKEMYKTDLEKDIISDTSGDFRKLMVALAKGRRAEDGSVIDYELIDQDARDLYDAGVKRKGTDVPKWISIMTERSVPHLQKVFDRYKSYSPYDMLESIRKEVKGDLENAFLNLVQCIQNKPLYPYDVPDYA
B5: Δ37-48: AnxA2 deletion of aa 37-48 (protein)
chain: MSTVHEILCKLSLEGDHSTPPSAYGSVKAYTNFDAEKGVDEVTIVNILTNRSNAQRQDIAFAYQRRTKKELASALKSALSGHLETVILGLLKTPAQYDASELKASMKGLGTDEDSLIEIICSRTNQELQEINRVYKEMYKTDLEKDIISDTSGDFRKLMVALAKGRRAEDGSVIDYELIDQDARDLYDAGVKRKGTDVPKWISIMTERSVPHLQKVFDRYKSYSPYDMLESIRKEVKGDLENAFLNLVQCIQNKPLYFADRLYDSMKGKGTRDKVLIRIMVSRSEVDMLKIRSEFKRKYGKSLYYYIQQDTKGDYQKALLYLCGGDDYPYDVPDYA
B6: Δ49-61: AnxA2 deletion of aa 49-61 (protein)
chain: MSTVHEILCKLSLEGDHSTPPSAYGSVKAYTNFDAERDALNIETAIKTNRSNAQRQDIAFAYQRRTKKELASALKSALSGHLETVILGLLKTPAQYDASELKASMKGLGTDEDSLIEIICSRTNQELQEINRVYKEMYKTDLEKDIISDTSGDFRKLMVALAKGRRAEDGSVIDYELIDQDARDLYDAGVKRKGTDVPKWISIMTERSVPHLQKVFDRYKSYSPYDMLESIRKEVKGDLENAFLNLVQCIQNKPLYFADRLYDSMKGKGTRDKVLIRIMVSRSEVDMLKIRSEFKRKYGKSLYYYIQQDTKGDYQKALLYLCGGDDYPYDVPDYA
B7: Δ62-75: AnxA2 deletion of aa 62-75 (protein)
chain: MSTVHEILCKLSLEGDHSTPPSAYGSVKAYTNFDAERDALNIETAIKTKGVDEVTIVNILTQRRTKKELASALKSALSGHLETVILGLLKTPAQYDASELKASMKGLGTDEDSLIEIICSRTNQELQEINRVYKEMYKTDLEKDIISDTSGDFRKLMVALAKGRRAEDGSVIDYELIDQDARDLYDAGVKRKGTDVPKWISIMTERSVPHLQKVFDRYKSYSPYDMLESIRKEVKGDLENAFLNLVQCIQNKPLYFADRLYDSMKGKGTRDKVLIRIMVSRSEVDMLKIRSEFKRKYGKSLYYYIQQDTKGDYQKALLYLCGGDDYPYDVPDYA
B8: Δ37-66: AnxA2 deletion of aa 37-66 (protein)
chain: MSTVHEILCKLSLEGDHSTPPSAYGSVKAYTNFDAEQRQDIAFAYQRRTKKELASALKSALSGHLETVILGLLKTPAQYDASELKASMKGLGTDEDSLIEIICSRTNQELQEINRVYKEMYKTDLEKDIISDTSGDFRKLMVALAKGRRAEDGSVIDYELIDQDARDLYDAGVKRKGTDVPKWISIMTERSVPHLQKVFDRYKSYSPYDMLESIRKEVKGDLENAFLNLVQCIQNKPLYFADRLYDSMKGKGTRDKVLIRIMVSRSEVDMLKIRSEFKRKYGKSLYYYIQQDTKGDYQKALLYLCGGDDYPYDVPDYA
B9: Δ74-88: AnxA2 deletion of aa 74-88 (protein)
chain: MSTVHEILCKLSLEGDHSTPPSAYGSVKAYTNFDAERDALNIETAIKTKGVDEVTIVNILTNRSNAQRQDIAFSALSGHLETVILGLLKTPAQYDASELKASMKGLGTDEDSLIEIICSRTNQELQEINRVYKEMYKTDLEKDIISDTSGDFRKLMVALAKGRRAEDGSVIDYELIDQDARDLYDAGVKRKGTDVPKWISIMTERSVPHLQKVFDRYKSYSPYDMLESIRKEVKGDLENAFLNLVQCIQNKPLYFADRLYDSMKGKGTRDKVLIRIMVSRSEVDMLKIRSEFKRKYGKSLYYYIQQDTKGDYQKALLYLCGGDDYPYDVPDYA
B10: Δ82-88: AnxA2 deletion of aa 82-88 (protein)
chain: MSTVHEILCKLSLEGDHSTPPSAYGSVKAYTNFDAERDALNIETAIKTKGVDEVTIVNILTNRSNAQRQDIAFAYQRRTKKSALSGHLETVILGLLKTPAQYDASELKASMKGLGTDEDSLIEIICSRTNQELQEINRVYKEMYKTDLEKDIISDTSGDFRKLMVALAKGRRAEDGSVIDYELIDQDARDLYDAGVKRKGTDVPKWISIMTERSVPHLQKVFDRYKSYSPYDMLESIRKEVKGDLENAFLNLVQCIQNKPLYFADRLYDSMKGKGTRDKVLIRIMVSRSEVDMLKIRSEFKRKYGKSLYYYIQQDTKGDYQKALLYLCGGDDYPYDVPDYA
B11: Δ89-101: AnxA2 deletion of aa 89-101 (protein)
chain: MSTVHEILCKLSLEGDHSTPPSAYGSVKAYTNFDAERDALNIETAIKTKGVDEVTIVNILTNRSNAQRQDIAFAYQRRTKKELASALKLLKTPAQYDASELKASMKGLGTDEDSLIEIICSRTNQELQEINRVYKEMYKTDLEKDIISDTSGDFRKLMVALAKGRRAEDGSVIDYELIDQDARDLYDAGVKRKGTDVPKWISIMTERSVPHLQKVFDRYKSYSPYDMLESIRKEVKGDLENAFLNLVQCIQNKPLYFADRLYDSMKGKGTRDKVLIRIMVSRSEVDMLKIRSEFKRKYGKSLYYYIQQDTKGDYQKALLYLCGGDDYPYDVPDYA

Molecular target: PCSK9-V5 (Homo sapiens, UniProt Q8NBP7)
Experiment: Far Western blot with PCSK9-V5 conditioned media
Format: binding
Design: made in house; host or cells: CHO-K1 cells (conditioned medium, not purified)
Conditions: lysates of cells overexpressing the construct
Method: Lysates (20 to 30 μg protein), media or purified AnxA2-(His)6 were heated in reducing or non-reducing Laemmli sample buffer, resolved by SDS-PAGE on 8% glycine gels and electro-transferred onto nitrocellulose membranes (GE Healthcare). Following 1 h incubation in 5% skim milk in Tris-Buffered Saline-0.1% Tween (TBST), membranes where incubated with conditioned media of CHO-K1 cells overexpressing either an empty vector (pIRES-V5), PC5A-V5, CHRD-V5, pIRES-D374Y, PCSK9-V5 or its V5-tagged mutants, or incubated with purified AnxA2-(His)6 for 3 h at room temperature. […] For competition experiments, 10 μg of His-tagged PCSK9 or CHRD were added to the PCSK9-V5 media before Far Western blotting. For PCSK9 binding requirements with the ˜33 kDa protein, 1M NaCl, 10 mg/ml heparin, 1M NaCl+10 mg/ml heparin, or 100 mM EDTA were added to the PCSK9-V5 conditioned media used for Far Western blotting.
Wild type human Annexin A2 (AnxA2) (ATCC #MGC-2257) and Annexin A1 (AnxA1) (ATCC #MGC-5095) were purchased from ATCC and subcloned into NheI/SacI digested pIRES2-EGFP vector. An HA epitope ([…]) was fused by PCR mutagenesis at the C-terminus of both AnxA1 and AnxA2. Two-steps PCRs were performed on AnxA2 cDNA to introduce point mutations (N62Q; S64A; K28S+D34N+E36S; R37S+E43H+K47M; 77RRTKK (SEQ ID NO: 26)>AATAK (SEQ ID NO: 27); ^77RRTKK (SEQ ID NO: 26)>AATAA (SEQ ID NO: 28); ^77RRTKKELASALK (SEQ ID NO: 29)>^77AATAAELASALA (SEQ ID NO: 30); 80KKELA (SEQ ID NO: 31)>GKPLD (SEQ ID NO: 32)), or amino acid (aa) deletions (Δ2-24, aa 2-24; ΔR1, aa 37-108; ΔR2, aa 109-192; ΔR3, aa 193-268; ΔR4, aa 269-339; Δ25-36, aa 25-36; Δ37-48, aa 37-48; Δ49-61, aa 49-61; Δ62-75, aa 62-75; Δ37-66, aa 37-66; Δ74-88, aa 74-88; Δ82-88, aa 82-88; Δ89-101, aa 89-101; Δ102-108, aa 102-108) into pIRES2-AnxA2-EGFP vector (see Table 3 above). In addition, using PCR, the AnxA2 segment aa 49-75 was swapped with the corresponding AnxA1 segment aa 58-84 [AnxA1 (aa 58-84)>AnxA2 (aa 49-75)]. Similar swaps were performed for the corresponding AnxA2 sequence with AnxA1 (AnxA1>AnxA2: aa 25-27; aa 28-30; aa 31-33; aa 34-36; aa 37-39; aa 40-42; aa 43-45; aa 46-48; aa 49-75; aa 49-61; aa 62-75). All final cDNA constructs were verified by DNA sequencing.

Sequence of PCSK9-V5 (Q8NBP7 153-692): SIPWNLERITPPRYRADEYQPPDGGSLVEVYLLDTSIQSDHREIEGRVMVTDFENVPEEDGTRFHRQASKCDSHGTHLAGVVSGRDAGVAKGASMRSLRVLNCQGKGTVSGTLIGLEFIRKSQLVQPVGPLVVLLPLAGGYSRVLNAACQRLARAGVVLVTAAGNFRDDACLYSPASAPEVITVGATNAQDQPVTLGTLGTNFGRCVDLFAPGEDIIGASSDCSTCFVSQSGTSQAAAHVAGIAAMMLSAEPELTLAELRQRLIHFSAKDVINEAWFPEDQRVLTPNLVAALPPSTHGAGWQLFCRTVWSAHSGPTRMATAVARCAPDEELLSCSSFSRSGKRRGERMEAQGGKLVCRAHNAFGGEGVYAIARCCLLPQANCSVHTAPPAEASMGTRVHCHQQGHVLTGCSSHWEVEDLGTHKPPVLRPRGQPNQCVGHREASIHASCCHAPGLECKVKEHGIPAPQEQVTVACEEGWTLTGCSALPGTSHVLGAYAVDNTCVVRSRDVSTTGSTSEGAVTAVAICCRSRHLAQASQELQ
Sequence of PCSK9-V5 (Q8NBP7 31-152 partner limits assumed): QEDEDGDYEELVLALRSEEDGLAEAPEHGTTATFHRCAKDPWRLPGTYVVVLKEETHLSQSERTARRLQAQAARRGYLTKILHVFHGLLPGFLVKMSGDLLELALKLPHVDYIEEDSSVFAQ

| Molecule | PCSK9-V5 binding by Far Western blot |
| --- | --- |
| Δ2-24: AnxA2 deletion of aa 2-24 | does not affect binding to PCSK9 |
| B1 | completely abrogated the interaction |
| B2 | had no major effect |
| B3 | had no major effect |
| B4 | had no major effect |
| B5 | abolished PCSK9 binding |
| B6 | abolished PCSK9 binding |
| B7 | abolished PCSK9 binding |
| B8 | abolished PCSK9 binding |
| B9 | abolished PCSK9 binding |
| B10 | abolished PCSK9 binding |
| B11 | abolished PCSK9 binding |
